In one test the target is T1, GST-Arl1 (UniProt P61212 1-181).
T1 construct: Arl1; also called Arl1-GMPPNP; source: loaded with GMPPNP or GDP on the beads
T1 sequence (looked up): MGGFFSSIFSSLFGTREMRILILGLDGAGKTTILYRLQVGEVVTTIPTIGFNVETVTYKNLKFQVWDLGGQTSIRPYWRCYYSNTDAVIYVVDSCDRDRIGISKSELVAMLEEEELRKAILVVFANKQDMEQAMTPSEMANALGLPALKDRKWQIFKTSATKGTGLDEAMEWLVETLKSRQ
As to the kind of experiment: pull-down; IBRP assay: GST-Arl1 on glutathione beads (13 µg/µl) loaded with GMPPNP, HEK293 lysate with GFP-prey; bead fluorescence imaged. Particulars: one partner purified.

Test [1] concerns the target T2, GST-GRIP Y2177A (Golgin245 GRIP Y2177A in pGEB) (UniProt Q13439 2168-2215, Y2177A).
T2 construct: GRIP domain of Golgin245 with Y2177A; insert moved from the pEGFP-C2 construct by EcoRI/BamHI into pGEB; pGEB is a modified pGEX-KG vector; also called Y2177A mutant
T2 chain (looked up): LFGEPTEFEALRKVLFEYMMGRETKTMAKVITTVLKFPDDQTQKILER
As to the kind of experiment: pull-down; imaging beads-retained prey (IBRP) assay: GST-bait on glutathione beads (16 µg/µl), HEK293 lysate with GFP-prey, 100 µM GMPPNP; 30 min at 4°C, washes with 300 mM NaCl, bead fluorescence imaged; GFP lysate as control. Particulars: one partner purified.

No end group written: not given here.

B1: GFP-GRIP (Golgin245 GRIP domain wild type in pEGFP-C2) (domain or fragment, UniProt Q13439 2168-2215, looked up)
chain: {GFP}-LFGEPTEFEYLRKVLFEYMMGRETKTMAKVITTVLKFPDDQTQKILER
notes: GRIP domain of Golgin245; source: HEK293, transfected, in lysate
With B1, in the test with GST-Arl1, the “relative IBRP affinity with GMPPNP, fold of that with GDP” value came to 3 fold.

B2: GFP-GRIP (Y2177A) (Golgin245 GRIP domain Y2177A mutant in pEGFP-C2) (domain or fragment, UniProt Q13439 2168-2215, looked up)
chain: {GFP}-LFGEPTEFEALRKVLFEYMMGRETKTMAKVITTVLKFPDDQTQKILER
notes: GRIP domain of Golgin245 with Y2177A; source: HEK293, transfected, in lysate
In the case of B2, the “fold reduction of relative IBRP affinity against wild type GRIP domain” value with GST-Arl1 is roughly 80 fold.

B3: Arl1-GFP (wild type rat Arl1 in pEGFP-N1) (natural protein, UniProt P61212 1-181, looked up)
chain: MGGFFSSIFSSLFGTREMRILILGLDGAGKTTILYRLQVGEVVTTIPTIGFNVETVTYKNLKFQVWDLGGQTSIRPYWRCYYSNTDAVIYVVDSCDRDRIGISKSELVAMLEEEELRKAILVVFANKQDMEQAMTPSEMANALGLPALKDRKWQIFKTSATKGTGLDEAMEWLVETLKSRQ
notes: Arl1, ARF family small GTPase, rat, wild type; source: HEK293, transfected, in lysate
B3: the “fold reduction of the interaction (IBRP affinity) against wild type GST-GRIP” value in test [1] was greater than 14 fold.

The values are drawn from article PMC3612083, “Imaging Beads-Retained Prey Assay for Rapid and Quantitative Protein-Protein Interaction” (PLoS ONE, 2013).
